The text below walks through data of US20260265321A1, “PEPTIDE AND POLYPEPTIDE INHIBITING THE NF-KB SIGNALING PATHWAY” (Centre National de la Recherche Scientifique, priority 2023, published 2026).

By Kd is commonly meant the concentration at which binding is half-saturated. A lower Kd goes with higher affinity.

Assay [1] addresses T1, IKKα(10-667) EE homodimer (Homo sapiens, UniProt O15111, S176E/S180E).
T1 construct: an equivalent construct of the IKKα homodimer (i.e. IKKα(10-667) S176E/S180E, named IKKα(10-667) EE hereafter); 6×His (followed by TEV site) (N, cleaved yes); made in house; host or cells: Sf21 insect cells (baculovirus)
T1 sequence (O15111 10-667 S176E/S180E): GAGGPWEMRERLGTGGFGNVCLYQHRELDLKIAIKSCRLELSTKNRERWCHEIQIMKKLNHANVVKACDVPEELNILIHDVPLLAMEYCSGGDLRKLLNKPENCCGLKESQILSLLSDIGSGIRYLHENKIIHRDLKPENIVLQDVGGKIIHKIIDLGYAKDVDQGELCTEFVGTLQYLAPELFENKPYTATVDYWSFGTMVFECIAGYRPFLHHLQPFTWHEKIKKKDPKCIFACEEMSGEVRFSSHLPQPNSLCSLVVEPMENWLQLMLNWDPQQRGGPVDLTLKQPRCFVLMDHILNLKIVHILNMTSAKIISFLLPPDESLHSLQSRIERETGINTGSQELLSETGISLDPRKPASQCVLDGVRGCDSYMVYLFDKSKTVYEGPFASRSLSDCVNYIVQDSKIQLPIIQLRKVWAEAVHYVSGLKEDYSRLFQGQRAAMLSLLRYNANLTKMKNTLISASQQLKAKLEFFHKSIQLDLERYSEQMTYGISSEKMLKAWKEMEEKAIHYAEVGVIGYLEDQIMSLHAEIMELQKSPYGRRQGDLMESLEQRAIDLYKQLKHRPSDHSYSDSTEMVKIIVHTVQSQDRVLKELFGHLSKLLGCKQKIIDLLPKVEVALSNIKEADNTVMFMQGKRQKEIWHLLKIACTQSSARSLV
Kind of assay: Isothermal titration calorimetry (ITC) of peptide binding to IKKα homodimer. To be noted: 25° C.; for N (binding stoichiometry of IKKα: pep): 1:1 binding model; for TΔS / ΔG / ΔH: IKKα. The procedure:
All experiments were performed in ITC buffer (20 mM HEPES pH 8.0, 150 mM NaCl, 1 mM TCEP) unless otherwise stated. Purified IKKα(10-667) EE and IKKβ(1-669) EE protein samples were dialyzed overnight against ITC buffer at 4° C. Just before the ITC experiments, IKKα or IKKβ samples were concentrated, incubated at room temperature for 30 minutes and centrifuged at 11000 g to remove eventual precipitate. The final concentrations of IKKα and IKKβ in the sample cell varied between 22 and 50 μM depending on the measurement. HPLC purified synthetic peptides (IκBα pep) comprising residues 297-317 of IκBα were further desalted using a Nap5 (GE Healthcare, #17-0853-01) column equilibrated in milliQ water, lyophilized and then resuspended in ITC buffer. The concentration of peptides in the syringe varied between 220 and 975 μM depending on the measurement.
All ITC measurements were performed using a PEAQ-ITC MALVERN instrument. The titration parameters were set as following: temperature 25° C., reference power 10 μcal/s, feedback=high, stirring speed 750 RPM, initial delay 60 s, first injection 0.4 μl in 0.8 s and the remaining 19 injections were 2 μL in 4 s with 120 s of spacing. The data were fitted to a 1:1 binding model. All data were processed using NITPIC software and global fitting of two datasets was carried out using SEDPHAD.
To evaluate binding affinities, isothermal titration calorimetry (ITC) experiments were performed using a synthetic peptide that comprises the YDDφXφ motif plus the N-terminal acidic patch (residues 297-317, named IκBα pep hereafter) and purified IKKβ(1-669) EE homodimer or an equivalent construct of the IKKα homodimer (i.e. IKKα(10-667) S176E/S180E, named IKKα(10-667) EE hereafter). […] ITC analyses on the IKKα/β heterodimer were prevented by strong aggregation propensity at the concentrations required for these experiments.
All ITC experiments were performed at 25° C. The data were fitted to a 1:1 binding model. N refers to the binding stoichiometry of IKKα/β: pep, meaning that approximately half of total IKKα/β concentration binds pep ligand in agreement with the dimer form of IKKα/β being binding competent. The values for the IKKα interaction with IRF7 pep should be regarded as estimates due to low affinity and weakly exothermic binding, and therefore high experimental error and fitting uncertainty. All data were processed using NITPIC software and global fitting of two datasets was carried out using SEDPHAD.

For assay [2], the target named is T2, IKKβ(1-669) S177E/S181E homodimer, 6×His tag removed (human, UniProt O14920 1-669).
T2 sequence (looked up): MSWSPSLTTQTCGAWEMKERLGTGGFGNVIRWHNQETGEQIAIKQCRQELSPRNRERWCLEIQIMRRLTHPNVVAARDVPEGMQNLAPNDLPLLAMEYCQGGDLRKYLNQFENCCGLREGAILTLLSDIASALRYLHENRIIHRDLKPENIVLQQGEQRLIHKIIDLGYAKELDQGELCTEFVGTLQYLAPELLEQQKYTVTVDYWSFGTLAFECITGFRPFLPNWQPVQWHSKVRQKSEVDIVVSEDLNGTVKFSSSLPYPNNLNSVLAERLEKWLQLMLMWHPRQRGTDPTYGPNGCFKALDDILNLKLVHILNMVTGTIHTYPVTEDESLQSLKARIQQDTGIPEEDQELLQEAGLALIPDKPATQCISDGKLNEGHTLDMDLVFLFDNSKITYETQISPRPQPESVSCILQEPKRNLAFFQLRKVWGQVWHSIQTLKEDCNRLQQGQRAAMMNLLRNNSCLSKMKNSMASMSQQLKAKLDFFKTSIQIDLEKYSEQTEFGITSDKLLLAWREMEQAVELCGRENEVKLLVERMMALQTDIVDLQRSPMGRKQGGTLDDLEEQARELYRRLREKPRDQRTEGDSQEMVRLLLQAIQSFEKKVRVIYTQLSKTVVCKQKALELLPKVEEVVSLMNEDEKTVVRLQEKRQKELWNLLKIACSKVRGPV
Briefly: ITC, 25 °C, synthetic peptide into IKK homodimer, 1:1 model. The procedure: (§1) All experiments were performed in ITC buffer (20 mM HEPES pH 8.0, 150 mM NaCl, 1 mM TCEP) unless otherwise stated. […] Just before the ITC experiments, IKKα or IKKβ samples were concentrated, incubated at room temperature for 30 minutes and centrifuged at 11000 g to remove eventual precipitate. The final concentrations of IKKα and IKKβ in the sample cell varied between 22 and 50 μM depending on the measurement. […] The concentration of peptides in the syringe varied between 220 and 975 μM depending on the measurement.
(§2) All ITC experiments were performed at 25° C. The data were fitted to a 1:1 binding model. […] All data were processed using NITPIC software and global fitting of two datasets was carried out using SEDPHAD.
Background: ITC needs no label: the signal is the heat of the interaction.

In assay [3] the target is T3, IKKα(10-667) S176E/S180E homodimer, 6×His tag removed (human, UniProt O15111 10-667).
T3 construct: also called purified IKKα
T3 sequence (looked up): T1 sequence (O15111 10-667 S176E/S180E)
Described as above. The procedure:
as §1, §2

Residues, ends and D or L forms follow the SMILES beside them.

On to `CC[C@H](C)[C@H](NC(=O)[C@H](CC(=O)O)NC(=O)[C@H](CC(=O)O)NC(=O)[C@H](Cc1ccc(O)cc1)NC(=O)[C@H](CC(C)C)NC(=O)[C@H](CO)NC(=O)[C@H](CC(N)=O)NC(=O)[C@H](C)NC(=O)[C@H](CO)NC(=O)[C@H](CO)NC(=O)[C@@H](N)CC(C)C)C(=O)N[C@@H](CCC(=O)O)C(=O)N[C@@H](CS)C(=O)N[C@@H](Cc1ccccc1)C(=O)N[C@@H](CC(C)C)C(=O)N[C@@H](CCSC)C(=O)N[C@@H](CCC(=O)O)C(=O)N[C@@H](CC(C)C)C(=O)N[C@@H](CCC(=O)O)C(=O)N[C@@H](CCC(N)=O)C(=O)N1CCC[C@H]1C(=O)N[C@@H](C)C(=O)O` [IRF7 pep] (H-LSSANSLYDDIECFLMELEQPA-OH; N-terminus and C-terminus assumed), for which, in assay [1], the “N (binding stoichiometry of IKKα: pep)” value is listed as 0.6, the TΔS was -1.2 kcal/mol, the ΔG is -5.5 kcal/mol and the ΔH is -6.7 kcal/mol.

Turning to `CC[C@H](C)[C@H](NC(=O)CNC(=O)[C@H](CC(=O)O)NC(=O)[C@H](CC(C)C)NC(=O)CN)C(=O)N[C@H](C(=O)N[C@@H](CCC(=O)O)C(=O)N[C@@H](Cc1ccc(O)cc1)C(=O)N[C@@H](CC(=O)O)C(=O)N[C@@H](CC(=O)O)C(=O)N[C@@H](Cc1ccccc1)C(=O)N[C@@H](CCCCN)C(=O)N[C@@H](CC(C)C)C(=O)N[C@@H](CC(N)=O)C(=O)N[C@@H](CO)C(=O)N[C@@H](CO)C(=O)N[C@H](C(=O)N[C@H](C(=O)N[C@@H](CCC(=O)O)C(=O)N1CCC[C@H]1C(=O)N[C@@H](CCCCN)C(=O)N[C@@H](CCC(=O)O)C(=O)O)C(C)C)[C@@H](C)CC)[C@@H](C)CC` [p100 pep] (H-GLDGIIEYDDFKLNSSIVEPKE-OH; N-terminus and C-terminus assumed), in assay [1], the “N (binding stoichiometry of IKKα: pep)” value came to 0.60, the TΔS is -5.56 kcal/mol, the ΔG is -6.77 kcal/mol and the ΔH was -12.3 kcal/mol.

B1: synthetic IκBα pep wt (residues 297-317 of IκBα) (peptide)
peptide: EFTEDELPYDDCVFGGQRLTL
notes: HPLC purified synthetic peptide; also called IkBα pep wt; P1
Turning to B1, in assay [2], the “N (binding stoichiometry)” value was 0.58, the TΔS was -9.78 kcal/mol, the ΔG was -6 kcal/mol and the ΔH is -15.8 kcal/mol. For the same molecule, in assay [3], the “N (binding stoichiometry)” value is 0.62, the TΔS is -8.35 kcal/mol, the ΔG was -6.88 kcal/mol and the ΔH was -15.2 kcal/mol.

For the molecule GLDGIIEYDDFKLNSSIVEPKE [synthetic p100 pep], in assay [3], the affinity, expressed as Kd, was 11 µM; the “N (binding stoichiometry)” value is 0.6; the TΔS is -5.56 kcal/mol; the ΔG is -6.77 kcal/mol. This molecule also gave a ΔH in assay [3] of -12.3 kcal/mol.
